The series deals with the molecule itself. Kind of series: combined sedimentation/Stokes analysis.

B1: Sec7ΔC+HDS1, Sec7 residues 203-1220, purified (domain or fragment, yeast, UniProt P11075 203-1220, looked up)
chain: PRSTHTRNISLSSNGSNTNSTIILVKTTLETILNDKDIKKNSNAQKAIERTLQKFKEFDPQTTNNPHYVDSILVFEALRASCRTKSSKVQSLALDCLSKLFSFRSLDETLLVNPPDSLASNDQRQDAADGITPPPKQKIIDAAIDTISDCFQGEGTDDRVELQIVRALSSCILEEDSSSLCHGASLLKAIRTIYNVFVFSLNPSNQGIAQATLTQIISSVYDKIDLKQSTSSAVSLSTKNHQQQSAIELSEASENAETPAPLTLENMDKLNDDEERLMDAQQPDSIAITNQDLAVKDAFLVFRVMAKICAKPLETELDMRSHAVRSKLLSLHIIYSIIKDHIDVFLSHNIFLPGKERVCFIDSIRQYLRLVLSRNAASPLAPVFEVTLEIMWLLIANLRADFVKEIPVFLTEIYFPISELTTSTSQQKRYFLSVIQRICNDPRTLVEFYLNYDCNPGMPNVMEITVDYLTRLALTRVEITQTQRSYYDEQISKSLSTYNFSQLPLLTSSNLSSSPDVGQVNLLFPLDFALKMVSLNCIVSVLRSLSSWAHKALNPNTHTANKVLLNTTSSARQESRSSLSNDVRSSIMTSNDDFKPTYEDEESRSLSSQNIDADDPTQFENLKLRKTALSECIAIFNNKPKKAIPVLIKKGFLKDDSPISIAKWLLETEGLDMAAVGDYLGEGDDKNIAIMHAFVDEFDFTGMSIVDALRSFLQSFRLPGEGQKIDRFMLKFAERFVDQNPGVFSKADTAYVLSYSLIMLNTDLHSSQIKNKMSLQEFLENNEGIDNGRDLPRDFLEGLFNEIANNEIKLISEQHQAMLSGDTNLVQQQQSAFNFFNSRDLTREAYNQVSKEISSKTELVFKNLNKNKGGPDVYYAASHVEHVKSIFETLWMSFLAALTPPFKDYDDIDTTNKCLEGLKISIKIASTFRINDARTSFVGALVQFCNLQNLEEIKVKNVNAMVILLEVALSEGNYLEGSWKDILLVVSQMERLQLISKGIDRDTVPDVAQARVANPRVS
Take B1: the stoichiometry N (commonly a count of units in the complex or per binding partner) worked out at 2.

B2: Sec7f, Sec7(203-2009) purified fragment (domain or fragment, yeast, UniProt P11075 203-2009, looked up)
chain: PRSTHTRNISLSSNGSNTNSTIILVKTTLETILNDKDIKKNSNAQKAIERTLQKFKEFDPQTTNNPHYVDSILVFEALRASCRTKSSKVQSLALDCLSKLFSFRSLDETLLVNPPDSLASNDQRQDAADGITPPPKQKIIDAAIDTISDCFQGEGTDDRVELQIVRALSSCILEEDSSSLCHGASLLKAIRTIYNVFVFSLNPSNQGIAQATLTQIISSVYDKIDLKQSTSSAVSLSTKNHQQQSAIELSEASENAETPAPLTLENMDKLNDDEERLMDAQQPDSIAITNQDLAVKDAFLVFRVMAKICAKPLETELDMRSHAVRSKLLSLHIIYSIIKDHIDVFLSHNIFLPGKERVCFIDSIRQYLRLVLSRNAASPLAPVFEVTLEIMWLLIANLRADFVKEIPVFLTEIYFPISELTTSTSQQKRYFLSVIQRICNDPRTLVEFYLNYDCNPGMPNVMEITVDYLTRLALTRVEITQTQRSYYDEQISKSLSTYNFSQLPLLTSSNLSSSPDVGQVNLLFPLDFALKMVSLNCIVSVLRSLSSWAHKALNPNTHTANKVLLNTTSSARQESRSSLSNDVRSSIMTSNDDFKPTYEDEESRSLSSQNIDADDPTQFENLKLRKTALSECIAIFNNKPKKAIPVLIKKGFLKDDSPISIAKWLLETEGLDMAAVGDYLGEGDDKNIAIMHAFVDEFDFTGMSIVDALRSFLQSFRLPGEGQKIDRFMLKFAERFVDQNPGVFSKADTAYVLSYSLIMLNTDLHSSQIKNKMSLQEFLENNEGIDNGRDLPRDFLEGLFNEIANNEIKLISEQHQAMLSGDTNLVQQQQSAFNFFNSRDLTREAYNQVSKEISSKTELVFKNLNKNKGGPDVYYAASHVEHVKSIFETLWMSFLAALTPPFKDYDDIDTTNKCLEGLKISIKIASTFRINDARTSFVGALVQFCNLQNLEEIKVKNVNAMVILLEVALSEGNYLEGSWKDILLVVSQMERLQLISKGIDRDTVPDVAQARVANPRVSYESSRSNNTSFFDVWGKKATPTELAQEKHHNQTLSPEISKFISSSELVVLMDNIFTKSSELSGNAIVDFIKALTAVSLEEIESSENASTPRMFSLQKMVDVCYYNMDRIKLEWTPLWAVMGKAFNKIATNSNLAVVFFAIDSLRQLSMRFLDIEELSGFEFQHDFLKPFEYTVQNSGNTEVQEMIIECFRNFILTKSESIKSGWKPILESLQYTARSSTESIVLKTQLLVSNDIVTNHFENVFSQEDAFSELVGVFREITKNKRFQKLSLHALESLRKMTQNVADICFYNENKTEEERKHNDALLRGKDIFQDVWFPMLFCFNDTIMTAEDLEVRSRALNYMFDALVAYGGKFNDDFWEKICKKLLFPIFGVLSKHWEVNQFNSHDDLSVWLSTTLIQALRNLIALFTHYFESLNRMLDGFLGLLVSCICQENDTIARIGRSCLQQLILQNVSKFNEYHWNQIGDVFDKLFDLTTANELFDYDPLQQGRKSSVSHHQTTNDTSQHSDDDSNDRRENDSNISETVERAHQEESSEDVGGDMVETLNGQTKLNNGNSVPTVKDELNPKPASLSIPKKTKHMKRNESNEDIRRRINIKNSIVVKCVLQLLMIELLNELFENEDFAHCIPYKEAIRITRLLEKSYEFSRDFNEDYGLRTRLVEARVVDKIPNLLKQETSAAAVLLDIMFQLYLNDDEKKADLITRLITICIQVVEGYVSLDDRTMERSINAWRSVIVEILQGYYEFDDEDFRLYCPAMYALVIQILDKSVPTELRHAIKQFLSRVGELYLSTD
Take B2: the “stoichiometry N” value is 2.
